Measured values: publication PMC9352680, “A comprehensive thermodynamic model for RNA binding by the Saccharomyces cerevisiae Pumilio protein PUF4”
Where a chain is given by its changes, count along the chain named. Names may count otherwise.

T1: PUF4 RNA-binding domain (Saccharomyces cerevisiae, UniProt P25339 537-888)
T1 sequence: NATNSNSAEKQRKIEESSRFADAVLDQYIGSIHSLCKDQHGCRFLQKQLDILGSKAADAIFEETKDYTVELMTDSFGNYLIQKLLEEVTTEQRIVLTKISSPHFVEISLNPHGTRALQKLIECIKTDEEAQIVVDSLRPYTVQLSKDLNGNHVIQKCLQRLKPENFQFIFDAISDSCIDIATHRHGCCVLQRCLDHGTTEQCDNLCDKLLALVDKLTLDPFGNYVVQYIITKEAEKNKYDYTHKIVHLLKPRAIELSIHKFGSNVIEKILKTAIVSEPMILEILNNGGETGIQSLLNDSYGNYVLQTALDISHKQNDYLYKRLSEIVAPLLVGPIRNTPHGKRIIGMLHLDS

B1: Ic_S4_P5E.1_K5.1_C5.1_H5.1_A5.1_[T6A]_[A7C]_F5.1_[T8A]_[T9C]_[A10T]_T5.1 (ssRNA)
RNA: UUUGACAACUGAUCGUUCUUUCUUGUAUACACUUUCUUUCUCGAUCAGUUGUCUUU
B2: Ic_S4_P5E.1_K5.1_C5.1_H5.1_A5.1_[T6C]_[A7G]_F5.1_[T8C]_[T9C]_T5.1 (ssRNA)
RNA: B1 RNA with A29C, C30G, A31C, U33A
B3: Ic_S4_P5E.1_K5.1_C5.1_H5.1_A5.1_[T6C]_[A7G]_F5.1_[T8A]_[A10C]_T5.1 (ssRNA)
RNA: B1 RNA with A29C, C30G, C32U, U33C
B4: Ic_S4_P5E.1_K5.1_C5.1_H5.1_A5.1_[T5A]_F5.1_[T8C]_[T9C]_[A10T]_T5.1 (ssRNA)
RNA: B1 RNA with U28A, A29U, C30A, A31C
B5: Ic_S4_P5E.1_K5.1_C5.1_H5.1_A5.1_[T5A]_[A7T]_F5.1_[T9G]_[A10C]_T5.1 (ssRNA)
RNA: B1 RNA with U28A, A29U, C30U, A31U, C32G, U33C
B6: Ic_S4_P5E.1_K5.1_C5.1_H5.1_A5.1_F5.1_[T8C]_[T9C]_[A10T]_T5.1 (ssRNA)
RNA: B1 RNA with A29U, C30A, A31C
B7: Ic_S4_P5E.1_K5.1_C5.1_H5.1_A5.1_[T6A]_[A7T]_F5.1_[T9C]_[A10C]_T5.1 (ssRNA)
RNA: B1 RNA with C30U, A31U, U33C
B8: Ic_S4_P5E.1_K5.1_C5.1_H5.1_A5.1_[T5C]_[T6C]_[A7T]_F5.1_[T8A]_[T9G]_[A10C]_T5.1 (ssRNA)
RNA: B1 RNA with U28C, A29C, C30U, C32G, U33C
B9: Ic_S4_P5E.1_K5.1_C5.1_H5.1_A5.1_[T5G]_[T6C]_[A7G]_F5.1_[T9A]_T5.1 (ssRNA)
RNA: B1 RNA with U28G, A29C, C30G, A31U, C32A, U33A
B10: Ic_S4_P5E.1_K5.1_C5.1_H5.1_A5.1_[T5A]_[A7T]_F5.1_[T8C]_[T9C]_[A10T]_T5.1 (ssRNA)
RNA: B1 RNA with U28A, A29U, C30U, A31C
B11: Ic_S4_P5E.1_K5.1_C5.1_H5.1_A5.1_[A7G]_F5.1_[T8G]_[A10T]_T5.1 (ssRNA)
RNA: B1 RNA with A29U, C30G, A31G, C32U
B12: Ic_S4_P5E.1_K5.1_C5.1_H5.1_A5.1_[T6C]_[A7T]_F5.1_[T8C]_[A10G]_T5.1 (ssRNA)
RNA: B1 RNA with A29C, C30U, A31C, C32U, U33G
B13: Ic_S4_P5E.1_K5.1_C5.1_H5.1_A5.1_[T5C]_[T6A]_[A7T]_F5.1_[T8C]_[T9C]_T5.1 (ssRNA)
RNA: B1 RNA with U28C, C30U, A31C, U33A
B14: Ic_S4_P5E.1_K5.1_C5.1_H5.1_A5.1_[T5A]_[A7C]_F5.1_[T8A]_[T9G]_[A10C]_T5.1 (ssRNA)
RNA: B1 RNA with U28A, A29U, C32G, U33C
B15: Ic_S4_P5E.1_K5.1_C5.1_H5.1_A5.1_[T5G]_[T6C]_F5.1_[T9A]_[A10C]_T5.1 (ssRNA)
RNA: B1 RNA with U28G, A29C, C30A, A31U, C32A, U33C
B16: Ic_S4_P5E.1_K5.1_C5.1_H5.1_A5.1_[T5C]_[T6C]_[A7C]_F5.1_[T8G]_[T9C]_[A10C]_T5.1 (ssRNA)
RNA: B1 RNA with U28C, A29C, A31G, U33C
B17: Ic_S4_P5E.1_K5.1_C5.1_H5.1_A5.1_[T6C]_F5.1_[T9G]_[A10C]_T5.1 (ssRNA)
RNA: B1 RNA with A29C, C30A, A31U, C32G, U33C
B18: Ic_S4_P5E.1_K5.1_C5.1_H5.1_A5.1_[T5G]_[T6C]_F5.1_[T8C]_[A10T]_T5.1 (ssRNA)
RNA: B1 RNA with U28G, A29C, C30A, A31C, C32U
B19: Ic_S4_P5E.1_K5.1_C5.1_H5.1_A5.1_[T5C]_[T6G]_[A7C]_F5.1_[T8A]_[T9G]_[A10C]_T5.1 (ssRNA)
RNA: B1 RNA with U28C, A29G, C32G, U33C
B20: Ic_S4_P5E.1_K5.1_C5.1_H5.1_A5.1_[T5A]_[A7C]_F5.1_[T8C]_[T9G]_[A10C]_T5.1 (ssRNA)
RNA: B1 RNA with U28A, A29U, A31C, C32G, U33C
B21: Ic_S4_P5E.1_K5.1_C5.1_H5.1_A5.1_[T6G]_[A7T]_F5.1_[T8C]_[T9C]_[A10C]_T5.1 (ssRNA)
RNA: B1 RNA with A29G, C30U, A31C, U33C
B22: Ic_S4_P5E.1_K5.1_C5.1_H5.1_A5.1_[T5C]_[T6A]_F5.1_[T9C]_[A10T]_T5.1 (ssRNA)
RNA: B1 RNA with U28C, C30A, A31U
B23: Ic_S4_P5E.1_K5.1_C5.1_H5.1_A5.1_[T5A]_[T6A]_[A7T]_F5.1_[T8C]_[T9A]_[A10G]_T5.1 (ssRNA)
RNA: B1 RNA with U28A, C30U, A31C, C32A, U33G
B24: Ic_S4_P5E.1_K5.1_C5.1_H5.1_A5.1_[T5G]_[T6C]_[A7T]_F5.1_[T8A]_[A10T]_T5.1 (ssRNA)
RNA: B1 RNA with U28G, A29C, C30U, C32U
B25: Ic_S4_P5E.1_K5.1_C5.1_H5.1_A5.1_[T5A]_F5.1_[T8A]_[T9C]_[A10T]_T5.1 (ssRNA)
RNA: B1 RNA with U28A, A29U, C30A
B26: Ic_S4_P5E.1_K5.1_C5.1_H5.1_A5.1_[A7C]_F5.1_[T8G]_[A10T]_T5.1 (ssRNA)
RNA: B1 RNA with A29U, A31G, C32U
B27: Ic_S4_P5E.1_K5.1_C5.1_H5.1_A5.1_[T5C]_[A7T]_F5.1_[T8A]_[T9C]_[A10G]_T5.1 (ssRNA)
RNA: B1 RNA with U28C, A29U, C30U, U33G
B28: Ic_S4_P5E.1_K5.1_C5.1_H5.1_A5.1_[T5C]_[A7G]_F5.1_[T8G]_T5.1 (ssRNA)
RNA: B1 RNA with U28C, A29U, C30G, A31G, C32U, U33A
B29: Ic_S4_P5E.1_K5.1_C5.1_H5.1_A5.1_[T6A]_F5.1_[T9G]_[A10G]_T5.1 (ssRNA)
RNA: B1 RNA with C30A, A31U, C32G, U33G

molecular target: T1, PUF4 RNA-binding domain; assay: Mg; RNA-MaP; 20 mM Na-HEPES pH 7.4, 30 mM KOAc, 0.75 mM MgCl2, 0.1% Tween-20, 5% glycerol, 0.1 mg/mL BSA, 2 mM DTT; 25 C; 0.0125-409.6 nM protein; settings: tags: N-His6-TEV cleaved; C-SNAP kept, Cy3B-labelled; label: tethered on chip by stalled RNA polymerase

Row | Binder | Kd [nM]
1 | B1 | 75.1
2 | B2 | 850
3 | B3 | 1840
4 | B4 | 379
5 | B5 | 46.7
6 | B6 | 160
7 | B7 | 3.74
8 | B8 | 74.3
9 | B9 | 25.3
10 | B10 | 179
11 | B11 | 881
12 | B12 | 19.1
13 | B13 | 20.4
14 | B14 | 1930
15 | B15 | 6.93
16 | B16 | 985
17 | B17 | 14.6
18 | B18 | 172
19 | B19 | 882
20 | B20 | 946
21 | B21 | 66.1
22 | B22 | 19.7
23 | B23 | 180
24 | B24 | 56.6
25 | B25 | 561
26 | B26 | 59.5
27 | B27 | 561
28 | B28 | 34
29 | B29 | 16.6
